B1: SH3 and PX domain-containing protein 2B, residues 155 to 209; numbered along this chain, A1X283 (parent)
chain: EQYVVVANYQKQESSEISLSVGQVVDIIEKNESGWWFVSTAEEQGWVPATCLEGQ

± gives the uncertainty stated by the source.

Variants of B1 are the subject of the data set. In words: abundance fitness (aPCA) (normalised: wild type 0, dead -1); higher = more abundant; growth selection in yeast, the domain comes from the species named. As to conditions: Homo sapiens.
In the case of EQYVVVANYQKQESSEISLSVGQVVDIIEKNESGWWFVSTAEEQGWVPAFCLEGQ [T50F], the abundance fitness was -0.337 ± 0.14.
As for EQYVVVANYQKQESSEISLSVGQVVDIIEKNESGWWFVSTAEEQGWVPAYCLEGQ [T50Y], the figure is -0.095 ± 0.19; as for EQYVVVANYQKQESSEISLSVGQVVDIIEKNESGWWFVSTAEEQGWVPANCLEGQ [T50N], -0.159 ± 0.14.
Take EQYVVVANYQKQESSEISLSVGQVVDIIEKNESGWWFVSTAEEQGWVPAKCLEGQ [T50K]: the abundance fitness is 0.09 ± 0.12.
Then EQYVVVANYQKQESSEISLSVGQVVDIIEKNESGWWFVSTAEEQGWVPAPCLEGQ [T50P], with -0.134 ± 0.16; and EQYVVVANYQKQESSEISLSVGQVVDIIEKNESGWWFVSTAEEQGWVPAHCLEGQ [T50H], with -0.299 ± 0.18; and EQYVVVANYQKQESSEISLSVGQVVDIIEKNESGWWFVSTAEEQGWVPAQCLEGQ [T50Q], with -0.161 ± 0.1.
Then EQYVVVANYQKQESSEISLSVGQVVDIIEKNESGWWFVSTAEEQGWVPAGCLEGQ [T50G], with 0.001 ± 0.083.
Then EQYVVVANYQKQESSEISLSVGQVVDIIEKNESGWWFVSTAEEQGWVPAECLEGQ [T50E], with -0.096 ± 0.14.
Turning to EQYVVVANYQKQESSEISLSVGQVVDIIEKNESGWWFVSTAEEQGWVPADCLEGQ [T50D], the abundance fitness was -0.093 ± 0.16.
Then EQYVVVANYQKQESSEISLSVGQVVDIIEKNESGWWFVSTAEEQGWVPALCLEGQ [T50L], with -0.125 ± 0.097; and EQYVVVANYQKQESSEISLSVGQVVDIIEKNESGWWFVSTAEEQGWVPASCLEGQ [T50S], with -0.046 ± 0.086.
As for EQYVVVANYQKQESSEISLSVGQVVDIIEKNESGWWFVSTAEEQGWVPAMCLEGQ [T50M], the abundance fitness was -0.243 ± 0.11.
As for EQYVVVANYQKQESSEISLSVGQVVDIIEKNESGWWFVSTAEEQGWVPARCLEGQ [T50R], the figure is -0.023 ± 0.082.
Then EQYVVVANYQKQESSEISLSVGQVVDIIEKNESGWWFVSTAEEQGWVPAWCLEGQ [T50W], with 0.049 ± 0.12; and EQYVVVANYQKQESSEISLSVGQVVDIIEKNESGWWFVSTAEEQGWVPACCLEGQ [T50C], with -0.144 ± 0.16; and EQYVVVANYQKQESSEISLSVGQVVDIIEKNESGWWFVSTAEEQGWVPAACLEGQ [T50A], with -0.052 ± 0.086.
EQYVVVANYQKQESSEISLSVGQVVDIIEKNESGWWFVSTAEEQGWVPVTCLEGQ [A49V]: the abundance fitness was -0.207 ± 0.076.
Take EQYVVVANYQKQESSEISLSVGQVVDIIEKNESGWWFVSTAEEQGWVPMTCLEGQ [A49M]: the abundance fitness was determined as 0.003 ± 0.12.
As for EQYVVVANYQKQESSEISLSVGQVVDIIEKNESGWWFVSTAEEQGWVPPTCLEGQ [A49P], the figure is -0.105 ± 0.1; as for EQYVVVANYQKQESSEISLSVGQVVDIIEKNESGWWFVSTAEEQGWVPHTCLEGQ [A49H], 0.118 ± 0.14; as for EQYVVVANYQKQESSEISLSVGQVVDIIEKNESGWWFVSTAEEQGWVPWTCLEGQ [A49W], -0.586 ± 0.24.
Then EQYVVVANYQKQESSEISLSVGQVVDIIEKNESGWWFVSTAEEQGWVPLTCLEGQ [A49L], with -0.012 ± 0.11.
As for EQYVVVANYQKQESSEISLSVGQVVDIIEKNESGWWFVSTAEEQGWVPYTCLEGQ [A49Y], the figure is -0.237 ± 0.16; as for EQYVVVANYQKQESSEISLSVGQVVDIIEKNESGWWFVSTAEEQGWVPQTCLEGQ [A49Q], -0.327 ± 0.22; as for EQYVVVANYQKQESSEISLSVGQVVDIIEKNESGWWFVSTAEEQGWVPNTCLEGQ [A49N], 0.02 ± 0.17.
As for EQYVVVANYQKQESSEISLSVGQVVDIIEKNESGWWFVSTAEEQGWVPKTCLEGQ [A49K], the abundance fitness is -0.053 ± 0.12.
On to EQYVVVANYQKQESSEISLSVGQVVDIIEKNESGWWFVSTAEEQGWVPRTCLEGQ [A49R], for which the abundance fitness is -0.146 ± 0.074.
Then EQYVVVANYQKQESSEISLSVGQVVDIIEKNESGWWFVSTAEEQGWVPTTCLEGQ [A49T], with -0.191 ± 0.15; and EQYVVVANYQKQESSEISLSVGQVVDIIEKNESGWWFVSTAEEQGWVPATCLEPQ [G54P], with -0.112 ± 0.25.
As for EQYVVVANYQKQESSEISLSVGQVVDIIEKNESGWWFVSTAEEQGWVPATCLEHQ [G54H], the figure is -0.345 ± 0.2; as for EQYVVVANYQKQESSEISLSVGQVVDIIEKNESGWWFVSTAEEQGWVPATCLEMQ [G54M], -0.098 ± 0.22.
Then EQYVVVANYQKQESSEISLSVGQVVDIIEKNESGWWFVSTAEEQGWVPATCLEDQ [G54D], with -0.144 ± 0.1; and EQYVVVANYQKQESSEISLSVGQVVDIIEKNESGWWFVSTAEEQGWVPATCLERQ [G54R], with -0.019 ± 0.1.
On to EQYVVVANYQKQESSEISLSVGQVVDIIEKNESGWWFVSTAEEQGWVPATCLELQ [G54L], for which the abundance fitness worked out at 0.07 ± 0.089.
Then EQYVVVANYQKQESSEISLSVGQVVDIIEKNESGWWFVSTAEEQGWVPATCLECQ [G54C], with -0.04 ± 0.12; and EQYVVVANYQKQESSEISLSVGQVVDIIEKNESGWWFVSTAEEQGWVPATCLEAQ [G54A], with 0 ± 0.1.
Turning to EQYVVVANYQKQESSEISLSVGQVVDIIEKNESGWWFVSTAEEQGWVPATCLEYQ [G54Y], the abundance fitness was -0.042 ± 0.26.
For EQYVVVANYQKQESSEISLSVGQVVDIIEKNESGWWFVSTAEEQGWVPATCLEVQ [G54V], the abundance fitness is 0.008 ± 0.1.
As for EQYVVVANYQKQESSEISLSVGQVVDIIEKNESGWWFVSTAEEQGWVPATCLEIQ [G54I], the figure is 0.079 ± 0.089; as for EQYVVVANYQKQESSEISLSVGQVVDIIEKNESGWWFVSTAEEQGWVPATCLETQ [G54T], -0.069 ± 0.26; as for EQYVVVANYQKQESSEISLSVGQVVDIIEKNESGWWFVSTAEEQGWVPATCLENQ [G54N], 0.025 ± 0.12.
For EQYVVVANYQKQESSEISLSVGQVVDIIEKNESGWWFVSTAEEQGWVPATCLEFQ [G54F], the abundance fitness is -0.143 ± 0.12.
Regarding EQYVVVANYQKQESSEISLSVGQVVDIIEKNESGWWFVSTAEEQGWVPATCLEEQ [G54E], the abundance fitness stood at 0.11 ± 0.13.
As for EQYVVVANYQKQESSEISLSVGQVVDIIEKNESGWWFVSTAEEQGWVPATCLEKQ [G54K], the figure is -0.231 ± 0.19; as for EQYVVVANYQKQESSEISLSVGQVVDIIEKNESGWWFVSTAEEQGWVPATCLEQQ [G54Q], 0.121 ± 0.24.
As for EQYVVVANYQKQESSEISLSVGQVVDIIEKNESGWWFVSTAEEQGWVPATTLEGQ [C51T], the figure is -0.222 ± 0.12; as for EQYVVVANYQKQESSEISLSVGQVVDIIEKNESGWWFVSTAEEQGWVPATPLEGQ [C51P], -0.959 ± 0.22.
